From patent publication US20110206676A1 (UNIVERSITY OF CHICAGO, published 2011)

Biological target: T1, EsaC (Staphylococcus aureus, UniProt A0A0H2XIK2 1-130)
T1 construct: Predicted soluble 130 amino acid protein; also called EsaC polypeptide; purified EsaC
T1 sequence: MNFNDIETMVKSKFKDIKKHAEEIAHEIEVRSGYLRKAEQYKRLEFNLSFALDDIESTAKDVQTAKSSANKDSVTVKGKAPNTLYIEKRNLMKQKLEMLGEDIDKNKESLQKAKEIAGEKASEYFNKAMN
Assay: purified proteins mixed; method not described

B1: EsaB (other)
chain: MNQHVKVTFDFTNYNYGTYDLAVPAYLPIKNLIALVLDSLDISIFDVNTQIKVMTKGQLLVENDRLIDYQIADGDILKLL
notes: 80 amino acid predicted soluble protein; also called purified EsaB
binding result: no binding
